The text below walks through data of US20240011005A1 (HUIDAGENE THERAPEUTICS, published 2024).

Positions count from the first letter of the chain named.

Holding throughout (assay): cell_activity
In data set [1] the test system is T1, OsCas12f1-T132R T132R (Oscillibacter sp.).
T1 sequence: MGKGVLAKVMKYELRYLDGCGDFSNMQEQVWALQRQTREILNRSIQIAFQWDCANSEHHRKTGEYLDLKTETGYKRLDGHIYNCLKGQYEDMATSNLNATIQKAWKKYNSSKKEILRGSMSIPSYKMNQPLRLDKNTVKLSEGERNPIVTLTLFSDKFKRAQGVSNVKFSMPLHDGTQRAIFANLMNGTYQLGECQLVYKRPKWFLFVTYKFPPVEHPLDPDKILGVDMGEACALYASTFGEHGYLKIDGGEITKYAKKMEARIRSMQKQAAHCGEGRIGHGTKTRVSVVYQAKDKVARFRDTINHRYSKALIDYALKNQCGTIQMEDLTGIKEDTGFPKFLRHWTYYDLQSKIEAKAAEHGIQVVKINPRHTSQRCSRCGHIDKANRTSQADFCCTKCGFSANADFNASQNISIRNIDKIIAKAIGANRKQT
The note with it: PAM TTTC.

Data set [2] relates to T2, OsCas12f1 (ME-B.3) (Oscillibacter sp.).
T2 sequence: T1 sequence with R132T
The note with it: PAM TTTC, HEK293T.

Data set [3] concerns T3, OsCas12f1-S119R S119R (Oscillibacter sp.).
T3 sequence: T1 sequence with S119R, R132T
The note with it: PAM TTTC.

Data set [4] has as its system T4, OsCas12f1-A54R A54R (Oscillibacter sp.).
T4 sequence: T1 sequence with A54R, R132T
The note with it: PAM TTTC.

For data set [5], the system named is T5, OsCas12f1-S141R S141R (Oscillibacter sp.).
T5 sequence: T1 sequence with R132T, S141R
The note with it: PAM TTTC.

The subject of data set [6] is T6, OsCas12f1-D52R (Oscillibacter sp.).
T6 sequence: T1 sequence with D52R, R132T
The note with it: PAM TTTC; 1.31-fold in text.

For the sequence “AGGGACGACUUCCCGUCCCAAAAUCGAGACAGUAGCCGUAAAACUUUGAGUUUCAGAGUGGGCGACACACUCGAAAAGGUUAAGAUAUGCACAUAGUAAUCCGUGCAUGAGCCGCGAAAGCGGCUUGAAGGCCAUUACAGUAGGAGCAUACUUUUAUUUUUUU / TTTCCCATTACAGTAGGAGCATACGGG / CCCGTATGCTCCTACTGTAATGGGAAA”, the activity is 48.4 % GFP+ in data set [1]; 38.7 % GFP+ in data set [2]; 46.3 % GFP+ in data set [3]; 45.5 % GFP+ in data set [4]; 46.6 % GFP+ in data set [5]; 52.8 % GFP+ in data set [6].
